Our source for the protein stability index values is the supplement of paper PMC10567573.

The chains are these.
B1: KCNA3 (parent)
chain: YQSGGRIRRPVNVPIDIFSEEIRF
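Also: lentivirally expressed fusions sorted by FACS into six bins by GFP to DsRed ratio, PSI derived from sequencing read proportions per bin multiplied by bin number.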

The variants in the series derive from B1. Kind of series: protein stability index of a GFP-peptide fusion (GPS, HEK-293T) (PSI 1-6); higher = more stable. The settings on record: c terminus: a fixed tail appended.
On to YQKGGRIRRPVNVPIDIFSEEIRF [S3K], for which the protein stability index amounted to 2.24.

Turning to YQVGGRIRRPVNVPIDIFSEEIRF [S3V], the protein stability index was 2.01.

Take YQDGGRIRRPVNVPIDIFSEEIRF [S3D]: the protein stability index amounted to 2.41.

For YQNGGRIRRPVNVPIDIFSEEIRF [S3N], the protein stability index was determined as 2.23.

On to YQTGGRIRRPVNVPIDIFSEEIRF [S3T], for which the protein stability index was 2.06.

As to YQGGGRIRRPVNVPIDIFSEEIRF [S3G], the protein stability index is 1.81.

Turning to YQIGGRIRRPVNVPIDIFSEEIRF [S3I], the protein stability index is 1.58.

On to YQQGGRIRRPVNVPIDIFSEEIRF [S3Q], for which the protein stability index was 2.44.

As for YQAGGRIRRPVNVPIDIFSEEIRF [S3A], the protein stability index was 2.82.

As for YQPGGRIRRPVNVPIDIFSEEIRF [S3P], the protein stability index was found to be 2.22.

With YQHGGRIRRPVNVPIDIFSEEIRF [S3H], the protein stability index came out at 2.84.

As for YQCGGRIRRPVNVPIDIFSEEIRF [S3C], the protein stability index is 1.46.

With YQMGGRIRRPVNVPIDIFSEEIRF [S3M], the protein stability index turned out to be 1.56.

As to YQLGGRIRRPVNVPIDIFSEEIRF [S3L], the protein stability index was determined as 2.23.

On to YQEGGRIRRPVNVPIDIFSEEIRF [S3E], for which the protein stability index turned out to be 2.93.

Take YQRGGRIRRPVNVPIDIFSEEIRF [S3R]: the protein stability index came out at 2.59.

Take YQFGGRIRRPVNVPIDIFSEEIRF [S3F]: the protein stability index was 1.64.

In the case of YQWGGRIRRPVNVPIDIFSEEIRF [S3W], the protein stability index is 2.27.

YQYGGRIRRPVNVPIDIFSEEIRF [S3Y]: the protein stability index was 2.21.

Take YQSGGRIRIPVNVPIDIFSEEIRF [R9I]: the protein stability index is 2.27.

Take YQSGGRIRLPVNVPIDIFSEEIRF [R9L]: the protein stability index stood at 2.05.

Regarding YQSGGRIRAPVNVPIDIFSEEIRF [R9A], the protein stability index is 2.45.

In the case of YQSGGRIRNPVNVPIDIFSEEIRF [R9N], the protein stability index worked out at 2.12.

As for YQSGGRIRKPVNVPIDIFSEEIRF [R9K], the protein stability index was 1.78.

In the case of YQSGGRIRSPVNVPIDIFSEEIRF [R9S], the protein stability index came out at 2.06.

With YQSGGRIRFPVNVPIDIFSEEIRF [R9F], the protein stability index was 1.81.

For YQSGGRIRPPVNVPIDIFSEEIRF [R9P], the protein stability index was 2.26.

YQSGGRIRQPVNVPIDIFSEEIRF [R9Q]: the protein stability index is 1.87.

YQSGGRIREPVNVPIDIFSEEIRF [R9E]: the protein stability index turned out to be 2.26.

For YQSGGRIRMPVNVPIDIFSEEIRF [R9M], the protein stability index is 1.61.

For the variant YQSGGRIRDPVNVPIDIFSEEIRF [R9D], the protein stability index amounted to 1.62.

In the case of YQSGGRIRVPVNVPIDIFSEEIRF [R9V], the protein stability index was determined as 1.41.

With YQSGGRIRCPVNVPIDIFSEEIRF [R9C], the protein stability index was determined as 2.35.

In the case of YQSGGRIRHPVNVPIDIFSEEIRF [R9H], the protein stability index is 3.44.

As for YQSGGRIRGPVNVPIDIFSEEIRF [R9G], the protein stability index is 2.23.

For the variant YQSGGRIRYPVNVPIDIFSEEIRF [R9Y], the protein stability index is 1.72.

For the variant YQSGGRIRTPVNVPIDIFSEEIRF [R9T], the protein stability index was 2.48.

Turning to YQSGTRIRRPVNVPIDIFSEEIRF [G5T], the protein stability index was 2.54.

For YQSGSRIRRPVNVPIDIFSEEIRF [G5S], the protein stability index came out at 2.37.

On to YQSGERIRRPVNVPIDIFSEEIRF [G5E], for which the protein stability index came to 2.58.

Consider YQSGDRIRRPVNVPIDIFSEEIRF [G5D], for which the protein stability index was found to be 2.02.

With YQSGLRIRRPVNVPIDIFSEEIRF [G5L], the protein stability index was 2.09.

Regarding YQSGPRIRRPVNVPIDIFSEEIRF [G5P], the protein stability index was 2.32.

With YQSGNRIRRPVNVPIDIFSEEIRF [G5N], the protein stability index was 2.

For the variant YQSGRRIRRPVNVPIDIFSEEIRF [G5R], the protein stability index worked out at 2.08.

Turning to YQSGFRIRRPVNVPIDIFSEEIRF [G5F], the protein stability index was 1.68.

Take YQSGIRIRRPVNVPIDIFSEEIRF [G5I]: the protein stability index worked out at 1.94.

For YQSGVRIRRPVNVPIDIFSEEIRF [G5V], the protein stability index was 2.05.

As to YQSGWRIRRPVNVPIDIFSEEIRF [G5W], the protein stability index was 3.41.

Turning to YQSGKRIRRPVNVPIDIFSEEIRF [G5K], the protein stability index came to 2.2.

In the case of YQSGARIRRPVNVPIDIFSEEIRF [G5A], the protein stability index amounted to 2.38.

On to YQSGHRIRRPVNVPIDIFSEEIRF [G5H], for which the protein stability index was determined as 2.9.

On to YQSGMRIRRPVNVPIDIFSEEIRF [G5M], for which the protein stability index came to 1.37.

Turning to YQSGQRIRRPVNVPIDIFSEEIRF [G5Q], the protein stability index worked out at 2.5.

As to YQSGYRIRRPVNVPIDIFSEEIRF [G5Y], the protein stability index was 1.49.

Consider YQSGCRIRRPVNVPIDIFSEEIRF [G5C], for which the protein stability index worked out at 1.91.

For the variant YQSGGRIRRPENVPIDIFSEEIRF [V11E], the protein stability index worked out at 3.13.

With YQSGGRIRRPFNVPIDIFSEEIRF [V11F], the protein stability index was found to be 2.02.

Regarding YQSGGRIRRPDNVPIDIFSEEIRF [V11D], the protein stability index stood at 1.69.

For YQSGGRIRRPCNVPIDIFSEEIRF [V11C], the protein stability index is 2.39.

On to YQSGGRIRRPGNVPIDIFSEEIRF [V11G], for which the protein stability index was 1.79.

Take YQSGGRIRRPANVPIDIFSEEIRF [V11A]: the protein stability index worked out at 2.49.

YRSGGRIRRPVNVPIDIFSEEIRF [Q2R]: the protein stability index was determined as 2.07.

With YCSGGRIRRPVNVPIDIFSEEIRF [Q2C], the protein stability index stood at 2.19.

Consider YWSGGRIRRPVNVPIDIFSEEIRF [Q2W], for which the protein stability index came to 1.87.

For the variant YMSGGRIRRPVNVPIDIFSEEIRF [Q2M], the protein stability index is 2.04.

For the variant YLSGGRIRRPVNVPIDIFSEEIRF [Q2L], the protein stability index is 2.41.

In the case of YASGGRIRRPVNVPIDIFSEEIRF [Q2A], the protein stability index stood at 2.35.

YDSGGRIRRPVNVPIDIFSEEIRF [Q2D]: the protein stability index is 2.74.

Turning to YISGGRIRRPVNVPIDIFSEEIRF [Q2I], the protein stability index came out at 1.22.

For YVSGGRIRRPVNVPIDIFSEEIRF [Q2V], the protein stability index is 1.94.

For YHSGGRIRRPVNVPIDIFSEEIRF [Q2H], the protein stability index came out at 3.93.

On to YPSGGRIRRPVNVPIDIFSEEIRF [Q2P], for which the protein stability index turned out to be 2.07.

YKSGGRIRRPVNVPIDIFSEEIRF [Q2K]: the protein stability index turned out to be 1.92.

Turning to YFSGGRIRRPVNVPIDIFSEEIRF [Q2F], the protein stability index turned out to be 1.79.

Consider YTSGGRIRRPVNVPIDIFSEEIRF [Q2T], for which the protein stability index worked out at 2.47.

With YESGGRIRRPVNVPIDIFSEEIRF [Q2E], the protein stability index turned out to be 2.33.

As to YGSGGRIRRPVNVPIDIFSEEIRF [Q2G], the protein stability index was 2.7.

As for YNSGGRIRRPVNVPIDIFSEEIRF [Q2N], the protein stability index turned out to be 2.52.

Turning to YYSGGRIRRPVNVPIDIFSEEIRF [Q2Y], the protein stability index turned out to be 2.46.

Consider YSSGGRIRRPVNVPIDIFSEEIRF [Q2S], for which the protein stability index was 1.96.

Consider YQSGGRINRPVNVPIDIFSEEIRF [R8N], for which the protein stability index was determined as 2.2.

In the case of YQSGGRISRPVNVPIDIFSEEIRF [R8S], the protein stability index turned out to be 1.44.

For YQSGGRIARPVNVPIDIFSEEIRF [R8A], the protein stability index was determined as 2.57.

Regarding YQSGGRIIRPVNVPIDIFSEEIRF [R8I], the protein stability index is 3.3.

Turning to YQSGGRIKRPVNVPIDIFSEEIRF [R8K], the protein stability index was determined as 2.47.

In the case of YQSGGRICRPVNVPIDIFSEEIRF [R8C], the protein stability index worked out at 2.03.

Take YQSGGRIPRPVNVPIDIFSEEIRF [R8P]: the protein stability index stood at 2.02.

As for YQSGGRIQRPVNVPIDIFSEEIRF [R8Q], the protein stability index turned out to be 1.67.

With YQSGGRIHRPVNVPIDIFSEEIRF [R8H], the protein stability index turned out to be 4.19.

On to YQSGGRIMRPVNVPIDIFSEEIRF [R8M], for which the protein stability index came out at 2.03.

As for YQSGGRIFRPVNVPIDIFSEEIRF [R8F], the protein stability index worked out at 2.03.

Take YQSGGRIYRPVNVPIDIFSEEIRF [R8Y]: the protein stability index turned out to be 3.3.

Turning to YQSGGRIERPVNVPIDIFSEEIRF [R8E], the protein stability index turned out to be 2.3.
